Measurements: patent publication US6495317B1, “DNA encodingmannose 6-phosphate reductase and recombinants produced therefrom” (Board of Trustees of Michigan State University, priority 1996, dated 2002)
Where two headings read alike, the source gives them in different places.

How the values were obtained:
[1] = test system: mannose 6-phosphate reductase (M6PR); experiment: Kinetic characterization of purified M6PR (mannose 6-phosphate and NADPH kinetics); format: biochemical, celery (Apium graveolens); settings: 30° C., 33 mM Tris-HCl pH 7.5, 3 mM DTT; for Km: read-out: km
Excerpt: Subsequent purification steps were essentially as described in Loescher et al., Plant Physiol. 98:1396-1402 (1992) except for Reactive Yellow 86 (RY86) chromatography. Here the active fraction from the gel filtration step was split in two, and each fraction run separately on the RY86 column as described in Loescher et al., Plant Physiol. 98:1396-1402 (1992). The active fractions were pooled and either diluted by the addition of 0.5 v of column buffer or desalted using centrifugal concentrating devices (30 kD cut-off membranes) and washed with 2 volumes of column buffer. This step was performed to dilute or remove NADPH. The sample was then loaded back onto the RY86 column and activity eluted in a linear gradient between 0 and 0.2 mM NADPH in column buffer. The purified M6PR was desalted and concentrated using centrifugal filtration and was either used immediately for kinetic characterization or stored at −21° C. after adding glycerol (1:1, v:v).

[2] = test system: mannose 6-phosphate reductase (M6PR); experiment: M6PR activity assay (NADPH oxidation), specific activity of purified enzyme; format: biochemical, celery (Apium graveolens)
Experimental: Three putative M6PR and one non-positive clone (as determined by antibody screening) were tested for M6PR activity. Duplicate 10 ml cultures of each clone were grown in LB+ampicillin (amp; […]). Once an average OD600 of 0.5 had been attained one culture of each pair was induced by the addition of isopropyl-β-D-thiogalactopyranoside (IPTG; final concentration 10 mM). […] Cultures were maintained at 30° C. for a further 3 h and were harvested at an average OD600 of 1.29±0.02. Cells were pelleted by centrifugation (2000×g for 5 min) and washed twice by resuspending the pellets in 5 ml Tris (100 mM, pH 7.5) containing […], with a centrifugation step between each wash. After the final wash pelleted cells were maintained on ice. Just prior to disruption the cells were resuspended in 4 ml of extraction buffer (100 mM Tris-HCl pH 7.5, […], 10 mM DTT and 0.1% Triton X-100) and transferred to blood dilution vials (American Scientific Products, McGaw Park, Ill.). Cells were ruptured by suspending the vial containing the cells 0.5 cm above the cuphorn probe of a Heat Systems W-385 sonicator (Misonics Farmingdale, N.Y.) and subjecting them to 2 minutes sonication at full power. Coolant was circulated around the vial to maintain the temperature at approximately 4° C. After sonication, 1.5 ml aliquots of the homogenate were centrifuged at 13,000×g for 5 minutes at 4° C. […]

B1: Recombinant M6PR: mannose 6-phosphate reductase purified from IPTG-induced E. coli clone D carrying celery cDNA (SEQ ID NO:2) (protein)
chain: MAITLNSGFKMPVLGLGVWRMDRNEIKNLLLSAINLGYRHFDCAADYKNELEVGEAFKEAFDTDLVKREDLFITTKLWNSDHGHVIEACKNSLKKLQLEYLDLYLIHFPMASKHSGIGTTRSILDDEGVWEVDATISLEATWHEMEKLVEMGLVRSIGISNYDVYLTRDILSYSKIKPAVNQIETHPYFQRDSLIKFCQKYGIAITAHTPLGGALANTERFGSVSCLDDPVLKKLSDKHNKSPAQIVLRWGVQRNTIVIPKSSKTKRLEENINIFDFELSKEDMELIKTMERNQRSNTPAKAWGIDVYA
For B1, the “Vmax; NADPH” value ([1]; 9 NADPH concentrations 1-50 μM, mannose 6-phosphate 12 mM) was 6.0 ± 2.3 (2;3) μmol mg prot^−1 min^−1, the Km ([1]; 9 NADPH concentrations 1-50 μM, mannose 6-phosphate 12 mM, NADPH) was 0.0062 ± 0.0024 mM and the “Vmax; mannose 6-P” value ([1]; 12 M6P concentrations 1-50 mM, saturating NADPH 200 μM) was 8.0 ± 1.9 (4;6) μmol mg prot^−1 min^−1. For the same molecule, the Km ([1]; 12 M6P concentrations 1-50 mM, saturating NADPH 200 μM, mannose 6-P) was 10.1 ± 1.4 mM, the “average specific activity of the purified enzyme” value ([2]; average of three preparations, 1 mU = 1 nmol NADPH oxidized per minute) was 3926±833 mU/mg protein and the “specific activity of the purified enzyme” value ([2]; final two preparations) was 4441±13 mU/mg.
